Experimental data published in patent US12698507B2, “Methods and compositions for conferring and/or enhancing herbicide tolerance using protoporphyrinogen IX oxidase of various cyanobacteria or variant thereof” (FarmHannong Co., Ltd., priority 2019, dated 2026).

Test system: PPO-deficient BT3 E. coli (ΔPPO)
Experiment: PPO-inhibiting herbicide tolerance test of PPO variants in E. coli (growth on herbicide-containing LB agar)
Assay type: cell-based
Settings: CyPPO19 variants in BT3 (ΔPPO) E. coli; LB agar with 0 to 2,000 μM herbicide, 37° C., dark, 16-20 hours
Description: To enhance the PPO-inhibiting herbicide resistance of CyPPO19 and CyPPO18, PPO variant genes of the above example 2 were constructed. They were transformed to BT3 (ΔPPO) strain which is deficient of PPO activity and cultured in LB media with PPO-inhibiting herbicide, thereby examining whether growth of transformed BT3 was not inhibited.
BT3 competent cells were transformed with the pET303-CyPPO19 (wild type), pET303-CyPPO18 (wild type) plasmids, and those with a mutation(s) constructed (refer to example 2) via heat shock method, and were cultured in LB agar media containing ampicillin.
Single colony transformed with each CyPPO gene was cultured in 3 mL of LB broth (LPSS) containing ampicillin for more than 12 hours, and then was subcultured in LB broth until absorbance (OD600) reached 0.5 to 1. Then, it was diluted with LB broth to OD600=0.5. Again, the diluted solution was serially diluted 4 times by a factor of one tenth.
The LB agar media (LB 25 g/L, Bacto agar 12 g/L) containing ampicillin (100 μg/mL) and 0 to 2,000 μM of various herbicides were prepared. Herbicide solution stocks were all prepared in DMSO.
Then, 10 μL of each diluted solution of E. coli was dropped on the plate and cultured at 37° C. under dark for 16-20 hours. PPO-inhibiting herbicide resistance was evaluated with the extent of E. coli growth containing each gene was observed.
The extent of herbicide resistance was evaluated by the relative growth of variants to that of wild type, and listed in Tables 9 and 10 and FIGS. 3 to 32.
In Tables 9 and 10, the tolerance level of variants showing equivalent resistance to wild type was presented as ‘−’, and was done as ‘+’ per each 10-fold resistance until ‘+++++’ as maximal resistance.
FIGS. 3 to 30 and FIGS. 31 and 32 show the transformed E. coli growth result of CyPPO19 WT and its variants and CyPPO18 WT and its variants, respectively. The concentrations of herbicides were written above the photographs of tolerance test. A 10-fold dilution series of spots were shown from OD600=0.5 of the leftmost spot to OD600=0.00005 of the rightmost one.

B1: CyPPO19 V165S + A167I + F360M: variant of CyPPO19 PPO protein (SEQ ID NO: 1) (protein)
chain: MSEVDVAIVGGGLSGLSLAWRLQQSAPQYSVVLLEASDRLGGNITTQTAEGFVWELGPNSFAPTPALLQLIAEVGLQSELIRGDRHLPRYIYWRGQLYPLQPTRPLALATSNLLSPWGKVRAALGALGFVPPYLGSGDESVNSFFRRHLGQEVAERLVAPFVSGSYIGDPQQLSAAAAFRRIAQLEKLGGGLIAGALHLRRQQAPKPKPPTSVQMRPGELGSFKEGLAALPRAIAQQLKAPIHLQTPVQEITPDPKGGYLLRSGEQTWRARSVVLATPAYQTAELVAPFQPAIARVLATIPYPTVACVVLAYPAGLGRSVRPGFGVLIPRSQGIRTLGTIWSSCLFPQRTPAGWQVFTSMIGGATDPDLASLSEEAIVQQVQQDLNRLLDLPAAKARLLGMKVWRRAIPQYMVGYPEQWQQVTHALSQTPGLFLCSNYAEGVALGDRVEHGNRTAAAVAAYLSGGQP
modifications: Synthetic_PPO of Thermosynechococcus elongatus PKUAC-SCTE542 (comprising GenBank No. CP032152.1)
In the case of B1, the “tolerance level relative to wild type, Carfentrazone” value is reported as “+ (‘+’ per each 10-fold resistance)”, the “tolerance level relative to wild type, Flumioxazin” value is reported as “+++++ (until ‘+++++’ as maximal resistance)” and the “tolerance level relative to wild type, Fomesafen” value is reported as “++ (‘+’ per each 10-fold resistance)”. The “tolerance level relative to wild type, Oxyfluorfen” value was “++ (‘+’ per each 10-fold resistance)”, the “tolerance level relative to wild type, Saflufenacil” value was “++++ (‘+’ per each 10-fold resistance)” and the “tolerance level relative to wild type, Sulfentrazone” value was “+++ (‘+’ per each 10-fold resistance)”. For the same molecule, the “tolerance level relative to wild type, Tiafenacil” value was “+++++ (until ‘+++++’ as maximal resistance)”.

B2: CyPPO19 V165S + A167C + F360L: variant of CyPPO19 PPO protein (SEQ ID NO: 1) (protein)
chain: MSEVDVAIVGGGLSGLSLAWRLQQSAPQYSVVLLEASDRLGGNITTQTAEGFVWELGPNSFAPTPALLQLIAEVGLQSELIRGDRHLPRYIYWRGQLYPLQPTRPLALATSNLLSPWGKVRAALGALGFVPPYLGSGDESVNSFFRRHLGQEVAERLVAPFVSGSYCGDPQQLSAAAAFRRIAQLEKLGGGLIAGALHLRRQQAPKPKPPTSVQMRPGELGSFKEGLAALPRAIAQQLKAPIHLQTPVQEITPDPKGGYLLRSGEQTWRARSVVLATPAYQTAELVAPFQPAIARVLATIPYPTVACVVLAYPAGLGRSVRPGFGVLIPRSQGIRTLGTIWSSCLFPQRTPAGWQVFTSLIGGATDPDLASLSEEAIVQQVQQDLNRLLDLPAAKARLLGMKVWRRAIPQYMVGYPEQWQQVTHALSQTPGLFLCSNYAEGVALGDRVEHGNRTAAAVAAYLSGGQP
modifications: Synthetic_PPO of Thermosynechococcus elongatus PKUAC-SCTE542 (comprising GenBank No. CP032152.1)
B2 was tested, and the “tolerance level relative to wild type, Carfentrazone” value was “+ (‘+’ per each 10-fold resistance)”, the “tolerance level relative to wild type, Flumioxazin” value was “++++ (‘+’ per each 10-fold resistance)” and the “tolerance level relative to wild type, Fomesafen” value was “+ (‘+’ per each 10-fold resistance)”. For the same molecule, the “tolerance level relative to wild type, Oxyfluorfen” value was “+ (‘+’ per each 10-fold resistance)”, the “tolerance level relative to wild type, Saflufenacil” value was “+++ (‘+’ per each 10-fold resistance)” and the “tolerance level relative to wild type, Sulfentrazone” value was “++ (‘+’ per each 10-fold resistance)”. The “tolerance level relative to wild type, Tiafenacil” value was “++++ (‘+’ per each 10-fold resistance)”.
